Molecular target: the molecule itself
Experiment: SDS-PAGE

B1: T74S KcsA (pH-gated potassium channel KcsA with the mutation T74S) (natural protein, UniProt P0A334 1-160, looked up)
chain: MPPMLSGLLARLVKLLLGRHGSALHWRAAGAATVLLVIVLLAGSYLAVLAERGAPGAQLITYPRALWWSVETASTVGYGDLYPVTLWGRLVAVVVMVAGITSFGLVTAALATWFVGREQERRGHFVRHSEKAAEEAYTRTTRALHERFDRLERMLDDNRR
  stoichiometry N: 4
